Results as given in publication PMC10998830.
“And” between values parts separate entries of the source, which are not always exact repeats. Equal entries are not always repeated.

Assays:
[1] = substrate: O=P(O)(O)OC[C@H]1O[C@H](OP(=O)(O)OP(=O)(O)O)[C@H](O)[C@@H]1O; assay: purified protein, by the assay type; conditions: 25.0 °C
Method: (§1) Kinetics and thermal denaturation data were analysed by the nonlinear regression function of SigmaPlot 14.0 (SPSS Inc.). Thermal denaturation data were fitted to Eq. (1). Substrate saturation curves at a fixed concentration of the co-substrate were fitted to Eq. (2). Initial rate data at varying concentrations of HisZ were fitted to Eq. (3). The concentration of ATPPRT at any concentration of AbHisGS and AbHisZ was calculated according to Eq. (4). Histidine dose-response data were fitted to Eq. (5). Single-turnover data with WT-AbATPPRT isotopologues were fitted to Eq. (6). Plots of kcat ratios against relative viscosity were fitted to Eq. (7). Temperature-rate profile for AbHisGS was fitted to Eq. (8). Single-turnover data with R70A-AbATPPRT isotopologues were fitted to Eq. (9). In Eqs. […] While kcats for [^13C,^15N]AbHisGS and [^2H,^13C,^15N]AbHisGS are marginally lower than for unlabelled AbHisGS and [^15N]AbHisGS, the overlapping nature of most data points in Fig. 1c disagrees with distinguishable heavy-enzyme kinetic isotope effects on kcat (^HEkcat). […] This was further probed by pre-steady-state kinetics under multiple-turnover conditions. The AbHisGS reaction had been shown not to have a burst of product formation, which is reproduced here for unlabelled AbHisGS, whose traces overlap with those for [^2H,^13C,^15N]AbHisGS (Supplementary Fig. 5). […]

[2] = substrate: Nc1ncnc2c1ncn2[C@@H]1O[C@H](COP(=O)(O)OP(=O)(O)OP(=O)(O)O)[C@@H](O)[C@H]1O; assay: purified protein, by the assay type; conditions: 25.0 °C
Method: (§2) Kinetics and thermal denaturation data were analysed by the nonlinear regression function of SigmaPlot 14.0 (SPSS Inc.). Thermal denaturation data were fitted to Eq. (1). Substrate saturation curves at a fixed concentration of the co-substrate were fitted to Eq. (2). Initial rate data at varying concentrations of HisZ were fitted to Eq. (3). The concentration of ATPPRT at any concentration of AbHisGS and AbHisZ was calculated according to Eq. (4). Histidine dose-response data were fitted to Eq. (5). Single-turnover data with WT-AbATPPRT isotopologues were fitted to Eq. (6). Plots of kcat ratios against relative viscosity were fitted to Eq. (7). Temperature-rate profile for AbHisGS was fitted to Eq. (8). Single-turnover data with R70A-AbATPPRT isotopologues were fitted to Eq. (9). In Eqs. […] While kcats for [^13C,^15N]AbHisGS and [^2H,^13C,^15N]AbHisGS are marginally lower than for unlabelled AbHisGS and [^15N]AbHisGS, the overlapping nature of most data points in Fig. 1c disagrees with distinguishable heavy-enzyme kinetic isotope effects on kcat (^HEkcat). […] This was further probed by pre-steady-state kinetics under multiple-turnover conditions. The AbHisGS reaction had been shown not to have a burst of product formation, which is reproduced here for unlabelled AbHisGS, whose traces overlap with those for [^2H,^13C,^15N]AbHisGS (Supplementary Fig. 5). S5 Supplementary Figure 4 Substrate saturation curves for unlabelled AbATPPRT with AbHisGS purified from cultures grown in M9 and M9 with high cell density compared with previously published data (reproduced here) for unlabelled AbATPPRT with AbHisGS purified from cultures grown in LB. For the M9 and M9 high cell density curves, all data points are shown for two independent measurements, except for the previously published LB curves, where data are the mean of two independent measurements. Lines are best fit of the data to equation (2): solid line for M9 high cell density curves, long-dashed line for M9 curves, and short-dashed line for previously published LB curves. […]

[3] = substrate: Nc1ncnc2c1ncn2[C@@H]1O[C@H](COP(=O)(O)OP(=O)(O)O)[C@@H](O)[C@H]1O; assay: purified protein, by the assay type; conditions: 25.0 °C
Method: as §2

[4] = substrate: O=P(O)(O)OC[C@H]1O[C@H](OP(=O)(O)OP(=O)(O)O)[C@H](O)[C@@H]1O; assay: purified protein, by the assay type; conditions: 25.0 °C; remark: listed apart in the source
Method: as §2

[5] = substrate: Nc1ncnc2c1ncn2[C@@H]1O[C@H](COP(=O)(O)OP(=O)(O)OP(=O)(O)O)[C@@H](O)[C@H]1O; assay: purified protein, by the assay type; conditions: 25.0 °C; remark: listed apart in the source
Method: as §1

[6] = substrate: O=P(O)(O)OC[C@H]1O[C@H](OP(=O)(O)OP(=O)(O)O)[C@H](O)[C@@H]1O; assay: purified protein, by the assay type; conditions: 25.0 °C; remark: listed apart in the source
Method: To assess the effect of increased AbHisGS mass in catalysis, we purified AbHisGS from heterologous expression in M9 medium supplemented with different isotopes to produce AbHisGS carrying natural isotope abundance (unlabelled AbHisGS), [^15N]AbHisGS, [^13C,^15N]AbHisGS, and [^2H,^13C,^15N]AbHisGS (the ^2H is incorporated in non-exchangeable positions) (Supplementary Fig. 1). […] AbATPPRT substrate saturation curves at 25 °C using unlabelled AbHisGS produced from heterologous expression in LB medium by our published protocol[30] and unlabelled AbHisGS generated here from expression in M9 medium and in M9 with high cell density induction[47] […] S5 Supplementary Figure 4 Substrate saturation curves for unlabelled AbATPPRT with AbHisGS purified from cultures grown in M9 and M9 with high cell density compared with previously published data (reproduced here) for unlabelled AbATPPRT with AbHisGS purified from cultures grown in LB. For the M9 and M9 high cell density curves, all data points are shown for two independent measurements, except for the previously published LB curves, where data are the mean of two independent measurements. […] Kinetics and thermal denaturation data were analysed by the nonlinear regression function of SigmaPlot 14.0 (SPSS Inc.). […] The concentration of ATPPRT at any concentration of AbHisGS and AbHisZ was calculated according to Eq. (4). […]

[7] = substrate: Nc1ncnc2c1ncn2[C@@H]1O[C@H](COP(=O)(O)OP(=O)(O)O)[C@@H](O)[C@H]1O; assay: purified protein; format: biochemical, Acinetobacter baumannii; conditions: 25 °C, pH 8.5, 1.6 mM PRPP, 15 mM MgCl2, 100 mM KCl, unlabelled enzyme

B1: AbATPPRT (Acinetobacter baumannii ACICU) (protein)
chain: MNDVRNDDPNFNVMGNFDHGLTLALSKGRILKETLPLLATAGINLLEDPEKSRKLIFPTTHKQVRILILRASDVPTYVENGAADLGVAGKDVLMEHGAQHVYELLDLQIAKCKLMTAGKVGMERPKGRLKIATKYVNLTRQYYASLGEQVDVIKLYGSMELAPLVGLGDYIVDVVDTGNTLRANGLEPLEEICKVSSRLIVNKASFKRKQVLLNPIISQLEQAVQSR
notes: hetero-octameric holoenzyme (two HisGS dimers flanking a HisZ tetramer) reconstituted in vitro from separately purified recombinant AbHisGS (E. coli BL21(DE3)) and AbHisZ; unlabelled (natural isotope abundance)
**Q.** For B1, which Km [1] is on record?
**A.** 0.08 mM and 0.085 mM

**Q.** And the Km [2]?
**A.** 0.13 ± 0.02 mM

**Q.** What about the Km [3] of the same protein?
**A.** 0.30 mM and 0.28 mM

**Q.** And the Km [4]?
**A.** 0.12 ± 0.01 mM

**Q.** What about the Km [5] of the same protein?
**A.** 0.17 ± 0.03 mM and 0.21 ± 0.03 mM

**Q.** What about the Km [6] of the same protein?
**A.** 0.096 mM

**Q.** And the kcat [6]?
**A.** 16.6 ± 0.4 s⁻¹

**Q.** And the Km [7]?
**A.** 0.35 ± 0.04 mM

**Q.** What about the kcat [7] of the same protein?
**A.** 16.6 ± 0.4 s⁻¹
